Assay results: patent US20240309081A1 (QYUNS THERAPEUTICS, published 2024)

T1: human interleukin-33 (hIL-33) (human, UniProt O95760 112-270)
T1 construct: The immunogen was bought from Novoprotein; also called recombinant human interleukin-33
T1 sequence: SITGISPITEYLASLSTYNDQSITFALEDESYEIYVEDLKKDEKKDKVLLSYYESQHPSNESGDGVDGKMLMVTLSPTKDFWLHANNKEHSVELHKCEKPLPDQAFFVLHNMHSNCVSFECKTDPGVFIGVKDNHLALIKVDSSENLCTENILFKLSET

T2: natural human interleukin-33 (human) (UniProt O95760)
T2 sequence (looked up): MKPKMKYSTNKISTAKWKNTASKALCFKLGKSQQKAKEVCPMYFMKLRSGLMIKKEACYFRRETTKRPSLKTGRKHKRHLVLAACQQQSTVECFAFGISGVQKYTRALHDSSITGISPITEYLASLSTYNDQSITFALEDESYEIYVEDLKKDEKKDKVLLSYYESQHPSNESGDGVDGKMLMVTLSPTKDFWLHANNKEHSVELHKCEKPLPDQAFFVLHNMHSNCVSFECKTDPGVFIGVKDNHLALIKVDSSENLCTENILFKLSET

T3: interleukin-33 of rhesus monkeys (rhesus monkey, UniProt F7DLG4 112-269)
T3 construct: also called rhesus monkey IL-33
T3 sequence: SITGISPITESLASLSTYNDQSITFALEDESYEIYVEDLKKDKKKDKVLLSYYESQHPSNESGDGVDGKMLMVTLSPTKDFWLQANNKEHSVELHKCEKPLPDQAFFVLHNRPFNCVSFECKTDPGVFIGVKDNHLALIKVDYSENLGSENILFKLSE

B1: Etokimab/ANB020 (antibody, INN chains, looked up, V domains shown)
VH: QVQLMQSGAEVKKPGASVKVSCKASGYTFTSYWMHWVRQAPGQGLEWMGTIYPRNSNTDYNQKFKARVTMTRDTSTSTVYMELSSLRSEDTAVYYCARPLYYYLTSPPTLFWGQGTLVTVSS
VL: DIQLTQSPSFLSASVGDRVTITCKASQDVGTAVAWYQQKPGKAPKLLIYWASTRHTGVPSRFSGSGSGTEFTLTISSLQPEDFATYYCQQAKTYPFTFGSGTKLEIK
B2: QX007N (HZD78-70) (antibody, human IgG1, kappa, V domains shown)
VH: EVQLVESGGGLVQPGGSLRLSCAASGFSLSSYHMIWVRQAPGKGLEWVGVIYPNSNIYYATWAKGRFTISRDNSKNTLYLQMNSLRAEDTAVYYCARTIYVHVYSALSIWGQGTLVTVSS
VL: AFQMTQSPSSVSASVGDRVTITCQASESVLNEVSWYQQKPGKAPKLLIYFASKLASGVPSRFSGSGSGTDFTLTISSLQPEDFATYYCQQDWSMDNIDNAFGGGTKVEIKR
notes: Humanized rabbit antibody, expressed in ExpiCHO-S cells and purified with Protein A; also called humanized 78#

What was measured:
[1] = target: T1, human interleukin-33 (hIL-33); test: cell-based or functional assay
[2] = target: T2, natural human interleukin-33 (human); test: cell-based or functional assay
[3] = target: T1, human interleukin-33 (hIL-33); test: SPR (Biacore T200, 25 C), antibody captured on Protein A chip, antigen as analyte, 1:1 model
Procedure: Commercialized Protein A chip was used to immobilize an appropriate amount of antibody by capture method, so that the Rmax was about 50 RU, and the capture flow rate was 10 μl/min. The antigen was diluted by gradient, the flow rate of the instrument was switched to 30 μl/min, and the antigen flowed through the reference channel and the channel of the immobilized antibody in order of concentration from low to high, and the buffer was used as a negative control. After each binding and dissociation, the chip was regenerated with glycine at pH 1.5. The 1:1 binding model in Kinetics option was selected for fitting using the analysis software that comes with the instrument, and the binding rate constant kₐ, the dissociation rate constant kd and the equilibrium dissociation constant KD value of the antibody were calculated.
In addition, the affinity of QX007N (HZD78-70) and Etokimab/ANB020, a monoclonal antibody against human interleukin-33 developed by AnaptysBio were compared, and the detection method for known antibodies was the same as that for QX007N. Particularly, Etokimab/ANB020 was self-made by constructing an expression plasmid according to the APE4909 sequence provided by the patent WO2015106080A2, and transiently transfecting ExpiCHO-S cells.

[4] = target: T3, interleukin-33 of rhesus monkeys; test: SPR (Biacore T200), antibody captured on Protein A chip

Binder	inhibition of NF-KB/AP-1 signal transduction in HEK Blue IL-33 cells induced by recombinant human interleukin-33 (SEAP, OD630nm) [1]	neutralization of IFN-gamma release from human whole blood induced by recombinant human interleukin-33 [1]	neutralization of IL-5 release from KU812 cells induced by recombinant human interleukin-33 (IL-5 ELISA) [1]	inhibition of NF-KB/AP-1 signal transduction in HEK Blue IL-33 cells induced by natural human interleukin-33 (SEAP, OD630nm) [2]	Kd [3]	koff [3]	kon [3]	binding result [4]
B1	6.05 ng/mL	31.9 ng/mL	44 ng/mL	2.5 ng/mL	0.869 nM	0.000369 s⁻¹	424000 M⁻¹ s⁻¹	–
B2	–	–	–	–	1.23 nM	0.000481 s⁻¹	392000 M⁻¹ s⁻¹	no binding
